In patent US20140235820A1, “METHODS AND COMPOSITIONS FOR MODULATING THE Wnt PATHWAY” (Genentech, Inc., priority 2010, published 2014):

T1: LRP6 E1 (Homo sapiens, UniProt O75581)
T1 construct: construct E1-amino acids A20-D325 of LPR6; made in house; host or cells: Tni insect cells (baculovirus, secreted)
T1 sequence (O75581 20-325): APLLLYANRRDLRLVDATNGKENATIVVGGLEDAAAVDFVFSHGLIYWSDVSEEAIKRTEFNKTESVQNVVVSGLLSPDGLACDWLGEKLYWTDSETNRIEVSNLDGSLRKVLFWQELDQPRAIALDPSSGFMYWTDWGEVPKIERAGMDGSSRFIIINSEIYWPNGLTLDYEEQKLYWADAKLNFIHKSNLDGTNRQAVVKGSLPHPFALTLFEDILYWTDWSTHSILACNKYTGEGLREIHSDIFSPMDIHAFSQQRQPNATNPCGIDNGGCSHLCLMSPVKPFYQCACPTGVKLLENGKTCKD

T2: Wnt9b binding to LRP6 E1E4 (Homo sapiens, UniProt O75581)
T2 construct: construct E1E4-amino acids A20-Q1253 of LPR6; made in house; host or cells: Tni insect cells (baculovirus, secreted)
T2 sequence (O75581 20-1253): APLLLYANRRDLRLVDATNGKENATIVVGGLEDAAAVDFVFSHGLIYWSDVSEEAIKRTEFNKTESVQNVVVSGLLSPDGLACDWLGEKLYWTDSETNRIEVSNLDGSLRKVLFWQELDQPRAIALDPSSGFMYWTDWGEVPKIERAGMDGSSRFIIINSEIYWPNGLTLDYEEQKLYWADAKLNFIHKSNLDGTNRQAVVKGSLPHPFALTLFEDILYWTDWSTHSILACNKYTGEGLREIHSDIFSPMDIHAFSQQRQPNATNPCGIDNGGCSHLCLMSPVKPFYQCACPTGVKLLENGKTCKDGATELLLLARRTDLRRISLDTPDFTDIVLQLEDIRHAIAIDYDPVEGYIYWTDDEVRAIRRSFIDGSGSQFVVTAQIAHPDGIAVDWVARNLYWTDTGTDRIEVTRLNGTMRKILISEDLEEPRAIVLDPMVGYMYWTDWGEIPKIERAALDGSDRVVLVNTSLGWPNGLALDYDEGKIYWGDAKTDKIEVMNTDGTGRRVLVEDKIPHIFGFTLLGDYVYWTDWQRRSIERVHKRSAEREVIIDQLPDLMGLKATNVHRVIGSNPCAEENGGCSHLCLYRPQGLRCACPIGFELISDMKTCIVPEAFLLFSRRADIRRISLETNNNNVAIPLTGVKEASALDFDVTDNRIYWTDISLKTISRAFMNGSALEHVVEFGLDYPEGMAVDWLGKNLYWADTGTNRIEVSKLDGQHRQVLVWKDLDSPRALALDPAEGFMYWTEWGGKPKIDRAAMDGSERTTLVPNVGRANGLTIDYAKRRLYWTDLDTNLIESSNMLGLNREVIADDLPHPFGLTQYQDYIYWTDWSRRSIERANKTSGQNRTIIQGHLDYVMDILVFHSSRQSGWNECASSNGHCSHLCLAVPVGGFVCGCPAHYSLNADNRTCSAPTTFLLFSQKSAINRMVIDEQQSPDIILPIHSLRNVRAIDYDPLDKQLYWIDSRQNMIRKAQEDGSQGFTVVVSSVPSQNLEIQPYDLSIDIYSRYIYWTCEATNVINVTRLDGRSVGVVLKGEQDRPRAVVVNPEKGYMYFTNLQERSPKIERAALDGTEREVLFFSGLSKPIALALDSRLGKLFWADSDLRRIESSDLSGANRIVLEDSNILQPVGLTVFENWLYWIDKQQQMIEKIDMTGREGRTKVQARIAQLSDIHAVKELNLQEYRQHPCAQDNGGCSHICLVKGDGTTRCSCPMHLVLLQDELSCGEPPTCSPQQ

T3: LRP6 E1E4 (Homo sapiens, UniProt O75581)
T3 construct: construct E1E4-amino acids A20-Q1253 of LPR6; made in house; host or cells: Tni insect cells (baculovirus, secreted)
T3 sequence (O75581 20-1253): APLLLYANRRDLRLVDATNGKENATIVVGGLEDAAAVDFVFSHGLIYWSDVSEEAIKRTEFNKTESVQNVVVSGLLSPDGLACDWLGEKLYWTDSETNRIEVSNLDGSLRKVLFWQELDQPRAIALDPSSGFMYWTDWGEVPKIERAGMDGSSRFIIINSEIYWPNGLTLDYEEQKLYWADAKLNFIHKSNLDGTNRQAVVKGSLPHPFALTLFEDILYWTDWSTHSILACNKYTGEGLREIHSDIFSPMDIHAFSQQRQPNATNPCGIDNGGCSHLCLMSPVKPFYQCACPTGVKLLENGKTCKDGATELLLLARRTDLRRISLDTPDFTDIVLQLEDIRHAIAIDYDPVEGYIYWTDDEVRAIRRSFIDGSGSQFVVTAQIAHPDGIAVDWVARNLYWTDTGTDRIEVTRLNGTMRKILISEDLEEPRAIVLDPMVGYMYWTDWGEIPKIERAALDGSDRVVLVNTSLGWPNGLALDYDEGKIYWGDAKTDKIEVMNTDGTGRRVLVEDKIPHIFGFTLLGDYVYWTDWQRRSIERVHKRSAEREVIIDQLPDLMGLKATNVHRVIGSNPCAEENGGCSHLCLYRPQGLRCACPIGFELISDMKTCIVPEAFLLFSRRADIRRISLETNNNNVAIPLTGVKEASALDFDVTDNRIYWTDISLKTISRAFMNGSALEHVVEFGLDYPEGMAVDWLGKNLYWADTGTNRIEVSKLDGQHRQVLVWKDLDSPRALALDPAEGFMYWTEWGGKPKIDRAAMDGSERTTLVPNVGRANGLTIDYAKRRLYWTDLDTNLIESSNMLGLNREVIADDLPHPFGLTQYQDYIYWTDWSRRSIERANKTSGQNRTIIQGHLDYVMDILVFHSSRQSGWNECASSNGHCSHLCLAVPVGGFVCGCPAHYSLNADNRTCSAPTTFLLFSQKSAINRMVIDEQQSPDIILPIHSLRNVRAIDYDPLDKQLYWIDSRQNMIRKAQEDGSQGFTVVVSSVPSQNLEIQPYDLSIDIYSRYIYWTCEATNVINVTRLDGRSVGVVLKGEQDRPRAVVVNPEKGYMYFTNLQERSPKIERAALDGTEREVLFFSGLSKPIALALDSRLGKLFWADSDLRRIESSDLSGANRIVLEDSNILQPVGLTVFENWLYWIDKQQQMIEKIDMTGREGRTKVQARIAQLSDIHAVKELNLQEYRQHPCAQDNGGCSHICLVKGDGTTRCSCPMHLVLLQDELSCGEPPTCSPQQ

T4: Wnt3a binding to LRP6 E1E4 (Homo sapiens, UniProt O75581)
T4 construct: construct E1E4-amino acids A20-Q1253 of LPR6; made in house; host or cells: Tni insect cells (baculovirus, secreted)
T4 sequence (O75581 20-1253): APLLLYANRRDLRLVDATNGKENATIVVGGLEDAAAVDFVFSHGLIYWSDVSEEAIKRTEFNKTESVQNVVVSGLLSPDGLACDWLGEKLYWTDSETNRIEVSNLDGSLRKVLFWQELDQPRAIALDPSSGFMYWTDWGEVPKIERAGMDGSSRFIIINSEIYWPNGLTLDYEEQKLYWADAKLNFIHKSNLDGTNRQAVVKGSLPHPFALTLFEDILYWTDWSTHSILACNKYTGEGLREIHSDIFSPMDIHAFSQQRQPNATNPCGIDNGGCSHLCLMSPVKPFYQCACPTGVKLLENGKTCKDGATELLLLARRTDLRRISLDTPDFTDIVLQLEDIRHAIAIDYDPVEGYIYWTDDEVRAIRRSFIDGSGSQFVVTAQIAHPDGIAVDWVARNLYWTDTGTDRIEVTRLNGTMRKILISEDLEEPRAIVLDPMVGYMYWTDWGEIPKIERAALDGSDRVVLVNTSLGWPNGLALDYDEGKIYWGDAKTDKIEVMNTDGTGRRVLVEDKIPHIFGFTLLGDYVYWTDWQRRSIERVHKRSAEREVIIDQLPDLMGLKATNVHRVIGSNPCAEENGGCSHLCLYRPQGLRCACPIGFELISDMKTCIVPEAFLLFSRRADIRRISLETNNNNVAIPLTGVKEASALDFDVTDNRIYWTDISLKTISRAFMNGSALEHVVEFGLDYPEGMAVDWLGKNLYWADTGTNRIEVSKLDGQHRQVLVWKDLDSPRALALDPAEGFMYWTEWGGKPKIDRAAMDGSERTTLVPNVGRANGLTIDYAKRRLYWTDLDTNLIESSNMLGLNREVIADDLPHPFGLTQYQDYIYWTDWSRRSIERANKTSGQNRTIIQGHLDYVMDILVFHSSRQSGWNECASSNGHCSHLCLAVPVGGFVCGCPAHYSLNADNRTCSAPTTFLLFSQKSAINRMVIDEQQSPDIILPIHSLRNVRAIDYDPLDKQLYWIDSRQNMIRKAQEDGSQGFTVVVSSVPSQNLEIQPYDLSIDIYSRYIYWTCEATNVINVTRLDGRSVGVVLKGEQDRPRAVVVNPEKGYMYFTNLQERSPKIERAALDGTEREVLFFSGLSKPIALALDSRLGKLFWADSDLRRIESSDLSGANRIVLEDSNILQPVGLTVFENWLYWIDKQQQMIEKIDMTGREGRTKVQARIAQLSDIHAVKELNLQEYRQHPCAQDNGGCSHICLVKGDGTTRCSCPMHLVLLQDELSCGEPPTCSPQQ


Columns and labels:
[1] = biological target: T1, LRP6 E1; test: Biolayer interferometry binding to LRP6 E1
Description: (§1) Binding kinetics were measured by biolayer interferometry using an Octet Red instrument (ForteBio) as previously described (11). Streptavidin (SA) biosensors were loaded with biotinylated hLRP6 in 50 mMTris, pH 8, 300 mM NaCl, 5% (v/v) glycerol, and 0.05% (w/v) Triton X-100. The loaded biosensors were washed in the same buffer before carrying out association and dissociation measurements for the indicated times. The Kd of each interaction was determined using steady state-analysis through the Octet Red software v6.3. Each reported value represents an average of three or more experiments at different concentrations, with a fitted experimental curve for which the square of the correlation coefficient (R^2) is above 0.96.
(§2) The interaction of the different Dkks and sclerostin with various domains of LRP6 was measured using a biolayer interferometry assay (11). Purified receptors contained individual β-propeller-EGF-like units (E1, E2, or E4), two β-propellers (E1E2 or E3E4), or four β-propellers (E1E4))—as follows:
(§3) Human LRP6: construct E1E4-amino acids A20-Q1253 of LPR6; construct E1E2-amino acids A20-E631 of LPR6; construct E3E4 amino acids E631-Q1253 of LPR6; construct E1-amino acids A20-D325 of LPR6; construct E2-amino acids […]-E631 of LPR6; construct E4-T933-Q1253. The individual LRP6 β-propeller E3 could not be expressed.

[2] = biological target: T2, Wnt9b binding to LRP6 E1E4; test: Wnt9b binding to LRP6 E1E4 in presence of inhibitor; conditions: inhibitor 125 nM, Wnt 125 nM
Description: (§4) FIG. 11. Wnt binding to LRP6 E1E4 in the presence or absence of Dkk1 or sclerostin.
as §1
(§5) Wnt9b also binds to the E1E2 region but not to the E3E4 region (11). Accordingly, sclerostin inhibits Wnt9b binding to LRP6 E1E4 (FIG. 11). […] Accordingly, Dkk1 inhibits the binding of both Wnt3a and Wnt9b to LRP6 E1E4 (FIG. 11).

[3] = biological target: T3, LRP6 E1E4; test: Biolayer interferometry binding to LRP6 E1E4
Description: as §1, §2, §3

[4] = biological target: T4, Wnt3a binding to LRP6 E1E4; test: Wnt3a binding to LRP6 E1E4 in presence of inhibitor; conditions: inhibitor 125 nM, Wnt 125 nM
Description: as §4, §1, §5

Molecule	binding to LRP6 E1 (in words) [1]	inhibition of Wnt9b binding to LRP6 E1E4 [2]	binding to LRP6 E1E4 (in words) [3]	inhibition of Wnt3a binding to LRP6 E1E4 [4]
sclerostin: Sclerostin protein, Wnt pathway inhibitor, expressed in insect cells (LPNAIGR)	binds	inhibits	binds	unable to inhibit
Dkk1: Dickkopf 1 protein, Wnt pathway inhibitor, expressed in insect cells (NSNAIKN)	bind with high affinity	inhibits	–	inhibits
Dkk1 Ile42Glu (ligand, human, UniProt O94907 32-266, looked up, also called Dkk1 I42E) TLNSVLNSNAEKNLPPPLGGAAGHPGSAVSAAPGILYPGGNKYQTIDNYQPYPCAEDEECGTDEYCASPTRGGDAGVQICLACRKRRKRCMRHAMCCPGNYCKNGICVSSDQNHFRGEIEETITESFGNDHSTLDGYSRRTTLSSKMYHTKGQEGSVCLRSSDCASGLCCARHFWSKICKPVLKEGQVCTKHRRKGSHGLEIFQRCYCGEGLSCRIQKDHHQASNSSRLHTCQRH	–	–	retain binding	–
Dkk1 K211E (ligand, human, UniProt O94907 32-266, looked up, also called Dkk1 Lys211Glu) TLNSVLNSNAIKNLPPPLGGAAGHPGSAVSAAPGILYPGGNKYQTIDNYQPYPCAEDEECGTDEYCASPTRGGDAGVQICLACRKRRKRCMRHAMCCPGNYCKNGICVSSDQNHFRGEIEETITESFGNDHSTLDGYSRRTTLSSKMYHTKGQEGSVCLRSSDCASGLCCARHFWSKICEPVLKEGQVCTKHRRKGSHGLEIFQRCYCGEGLSCRIQKDHHQASNSSRLHTCQRH	–	–	retain binding	–
